We go through three molecules from patent US20160002357A1 (Pfizer, published 2016).

The assay addresses human P-cadherin, cell surface expressed (human, UniProt P22223 108-829). The assay is described as follows: cell-based or functional assay.

human P-cadherin, cell surface expressed, sequence (P22223 108-829): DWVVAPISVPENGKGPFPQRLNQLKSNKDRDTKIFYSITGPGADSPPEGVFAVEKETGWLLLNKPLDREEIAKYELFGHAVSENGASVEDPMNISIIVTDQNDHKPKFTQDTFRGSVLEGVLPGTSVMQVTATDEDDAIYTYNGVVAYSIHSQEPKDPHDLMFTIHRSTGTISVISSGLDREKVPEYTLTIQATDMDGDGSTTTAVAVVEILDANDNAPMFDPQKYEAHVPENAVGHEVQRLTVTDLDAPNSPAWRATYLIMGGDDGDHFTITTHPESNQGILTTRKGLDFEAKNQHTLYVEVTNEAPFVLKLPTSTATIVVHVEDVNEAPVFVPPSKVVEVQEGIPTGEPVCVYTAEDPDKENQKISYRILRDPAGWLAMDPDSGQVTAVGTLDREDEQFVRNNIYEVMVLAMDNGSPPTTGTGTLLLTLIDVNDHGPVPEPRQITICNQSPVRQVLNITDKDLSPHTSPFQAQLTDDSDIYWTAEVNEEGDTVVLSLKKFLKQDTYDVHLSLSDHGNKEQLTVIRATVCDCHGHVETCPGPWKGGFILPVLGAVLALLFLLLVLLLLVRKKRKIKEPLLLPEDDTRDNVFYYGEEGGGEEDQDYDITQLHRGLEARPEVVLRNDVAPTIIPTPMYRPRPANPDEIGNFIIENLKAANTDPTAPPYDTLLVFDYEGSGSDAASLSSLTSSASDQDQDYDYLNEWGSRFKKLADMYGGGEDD

B1: 154 EK-DART (P-CAD 154 x CD3-2) (bispecific antibody)
chain 1: QSVLTQPPSVSAAPGQKVTISCSGSSSNIGNNYVSWYQQLPGTAPKLLIYDNNKRPSGIPDRFSGSKSGTSATLGITGLQTGDEADYYCGTWDSSLSSYVFGTGTKVTVLGGGSGGGGEVQLVESGGGLVQPGGSLRLSCAASGFTFNTYAMNWVRQAPGKGLEWVARIRSKYNNYATYYADSVKDRFTISRDDSKNSLYLQMNSLKTEDTAVYYCVRHGNFGNSYVSWFAYWGQGTLVTVSSGGCGGGKVAALKEKVAALKEKVAALKEKVAALKE
chain 2: QAVVTQEPSLTVSPGGTVTLTCRSSTGAVTTSNYANWVQQKPGQAPRGLIGGTNKRAPWTPARFSGSLLGGKAALTITGAQAEDEADYYCALWYSNLWVFGGGTKLTVLGGGGSGGGGEVQLVQSGAEVKKPGASVKVSCKASGYTFTSYGISWVRQAPGQGLEWMGWISAYNGNTNYAQKLQGRVTMTTDTSTSTAYMELRSLRSDDTAVYYCATIDTATAFDIWGQGTMVTVSSGGCGGGEVAALEKEVAALEKEVAALEKEVAALEK
With B1, the “T cell directed cytotoxicity EC50, H1650 LDH 24 hr 30:1 D41183” value came to 10.7 pM and the “T cell directed cytotoxicity EC50, HCT116 Luc 48 hr 10:1 D43905” value came to 16.6 pM.

B2: 165 EK-DART (P-CAD 165 x CD3-2) (bispecific antibody)
chain 1: QSVLTQPPSVSAAPGQKVTISCSGSSSNIGNNYVSWYQQLPGTAPKLLIYDNNKRPSGIPDRFSGSKSGTSATLGITGLQAGDEADYYCGTWDSSLSAYVFGTGTKVTVLGGGSGGGGEVQLVESGGGLVQPGGSLRLSCAASGFTFNTYAMNWVRQAPGKGLEWVARIRSKYNNYATYYADSVKDRFTISRDDSKNSLYLQMNSLKTEDTAVYYCVRHGNFGNSYVSWFAYWGQGTLVTVSSGGCGGGKVAALKEKVAALKEKVAALKEKVAALKE
chain 2: QAVVTQEPSLTVSPGGTVTLTCRSSTGAVTTSNYANWVQQKPGQAPRGLIGGTNKRAPWTPARFSGSLLGGKAALTITGAQAEDEADYYCALWYSNLWVFGGGTKLTVLGGGGSGGGGEVQLVQSGAEVKKPGASVKVSCKASGYTFTSYGISWVRQAPGQGLEWMGWISAYNGNTNYAQKLQGRVTMTTDTSTSTAYMELRSLRSDDTAVYYCATIDTANAFDIWGQGTMVTVSSGGCGGGEVAALEKEVAALEKEVAALEKEVAALEK
As for B2, the “T cell directed cytotoxicity EC50, H1650 LDH 24 hr 30:1 D41183” value was 1.1 pM and the “T cell directed cytotoxicity EC50, HCT116 Luc 48 hr 10:1 D43905” value is 1.5 pM.

B3: 177 EK-DART (P-CAD 177 x CD3-2) (bispecific antibody)
chain 1: QSVLTQPPSVSAAPGQKVTISCSGSSSNIGNNYVSWYQQLPGTAPKLLIYDNNKRPSGIPDRFSGSKSGTSATLGITGLQTGDEADYYCGTWDSSLSAYVFGTGTKVTVLGGGSGGGGEVQLVESGGGLVQPGGSLRLSCAASGFTFNTYAMNWVRQAPGKGLEWVARIRSKYNNYATYYADSVKDRFTISRDDSKNSLYLQMNSLKTEDTAVYYCVRHGNFGNSYVSWFAYWGQGTLVTVSSGGCGGGKVAALKEKVAALKEKVAALKEKVAALKE
chain 2: QAVVTQEPSLTVSPGGTVTLTCRSSTGAVTTSNYANWVQQKPGQAPRGLIGGTNKRAPWTPARFSGSLLGGKAALTITGAQAEDEADYYCALWYSNLWVFGGGTKLTVLGGGGSGGGGEVQLVQSGAEVKKPGASVKVSCKASGYTFTSYGISWVRQAPGQGLEWMGWISAYNGNTNYAQKLQGRVTMTTDTSTSTAYMELRSLRSDDTAVYYCATIDTANAFDIWGQGTMVTVSSGGCGGGEVAALEKEVAALEKEVAALEKEVAALEK
B3: the “T cell directed cytotoxicity EC50, H1650 LDH 24 hr 30:1 D41183” value worked out at 1.1 pM and the “T cell directed cytotoxicity EC50, HCT116 Luc 48 hr 10:1 D43905” value turned out to be 0.7 pM.
